From PMC9828152

Molecular target: Sp1 (specific protein 1) (UniProt P08047)
Test: anti-Flag co-IP, Sp1 blot
Details: reference: Ets1 WT-Flag; sites Y283

Ets1 (human E26 transcription factor 1) (from UniProt P14921) Ets1 Y283F-Flag
binding against the reference: weaker
